Experimental data: PMC8769072, “Proteome‐scale mapping of binding sites in the unstructured regions of the human proteome” (Molecular Systems Biology, 2022)
Where no end group is shown, it is not given here. [ ]: non-standard residue; d: D form. pY = N[C@@H](Cc1ccc(OP(=O)(O)O)cc1)C(=O)O; pT = C[C@@H](OP(=O)(O)O)[C@H](N)C(=O)O; pS = N[C@@H](COP(=O)(O)O)C(=O)O

biological target: CLTC (clathrin heavy chain 1, Clathrin-propeller domain) (human) (UniProt Q00610); experiment: fluorescence polarisation; competition: unlabelled peptide in serial dilution against the protein domain (master mix at four times the KD) with its FITC-labelled probe peptide; 50 mM KPO4 or NaPO4 pH 7.5; Ki calculated from IC50

IC50	Ki	Binder
97 µM	39 µM	Ac-LIDLPLIDFCDTPEAHY [GTSE1 645-660 peptide]
220 µM	100 µM	Ac-YVSGNLIDLCGNQGLP [MITF 256-271 peptide, Y265C]
150 µM	63 µM	Ac-YVSGNLIDLYGNQGLP [MITF 256-271 peptide]
87 µM	34 µM	Ac-LIDLPLIDFCD[pT]PEAHY [GTSE1 645-660 peptide, phosphothreonine]

biological target: KEAP1 Kelch (kelch-like ECH-associated protein 1, Kelch domain) (human) (UniProt Q14145); experiment: as above
Sequence (Q14145 whole entry, the tested form may be a part): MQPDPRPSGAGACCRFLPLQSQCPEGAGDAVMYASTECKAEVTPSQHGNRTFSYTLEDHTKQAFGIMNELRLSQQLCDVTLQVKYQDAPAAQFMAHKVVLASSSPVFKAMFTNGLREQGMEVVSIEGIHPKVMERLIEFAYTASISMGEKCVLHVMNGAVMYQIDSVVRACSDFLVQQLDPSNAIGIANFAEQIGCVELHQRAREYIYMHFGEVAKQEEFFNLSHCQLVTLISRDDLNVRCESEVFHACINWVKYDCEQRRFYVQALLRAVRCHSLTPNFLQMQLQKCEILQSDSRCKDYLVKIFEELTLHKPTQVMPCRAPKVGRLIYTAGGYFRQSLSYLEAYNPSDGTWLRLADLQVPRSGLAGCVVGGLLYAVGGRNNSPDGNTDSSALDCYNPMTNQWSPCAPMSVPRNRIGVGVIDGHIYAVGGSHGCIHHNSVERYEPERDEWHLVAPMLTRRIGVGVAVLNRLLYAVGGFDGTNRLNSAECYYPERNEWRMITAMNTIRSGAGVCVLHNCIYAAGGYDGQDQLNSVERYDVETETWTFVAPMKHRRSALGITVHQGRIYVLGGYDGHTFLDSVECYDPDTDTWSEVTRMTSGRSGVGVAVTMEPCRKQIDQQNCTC

IC50	Ki	Binder
3 µM	–	Ac-LIYVDKENGEPGTRVV-NH2 [PTTG1 4-19 peptide]
6.1 µM	1.5 µM	IDPSTGERFPVTDAVN-NH2 [PLEC 4459-4474 peptide]
0.31 µM	0.071 µM	Ac-YDEETGEFLPIQPAQH-NH2 [NFE2L2 77-91 peptide with an extra N-terminal Y, wild type]
44 µM	11 µM	GFDAVTGEFTGMPEQW-NH2 [PAK1 88-103 peptide]
1.5 µM	0.49 µM	Ac-GIIDPSTGERFPVTDY-NH2 [PLEC 4457-4471 peptide with an extra C-terminal Y, wild type]
2540 µM	611 µM	Ac-YDEEKGEFLPIQPAQH-NH2 [NFE2L2 77-91 peptide with an extra N-terminal Y, T80K]
80 µM	19 µM	YDPVTGEWKSLAKLPE-NH2 [KLHL24 335-350 peptide]
1650 µM	397 µM	Ac-YDEKTGEFLPIQPAQH-NH2 [NFE2L2 77-91 peptide with an extra N-terminal Y, E79K]

biological target: KPNB1 HEAT (importin subunit beta-1, HEAT repeat) (human) (UniProt Q14974); experiment: as above
Sequence (Q14974 whole entry): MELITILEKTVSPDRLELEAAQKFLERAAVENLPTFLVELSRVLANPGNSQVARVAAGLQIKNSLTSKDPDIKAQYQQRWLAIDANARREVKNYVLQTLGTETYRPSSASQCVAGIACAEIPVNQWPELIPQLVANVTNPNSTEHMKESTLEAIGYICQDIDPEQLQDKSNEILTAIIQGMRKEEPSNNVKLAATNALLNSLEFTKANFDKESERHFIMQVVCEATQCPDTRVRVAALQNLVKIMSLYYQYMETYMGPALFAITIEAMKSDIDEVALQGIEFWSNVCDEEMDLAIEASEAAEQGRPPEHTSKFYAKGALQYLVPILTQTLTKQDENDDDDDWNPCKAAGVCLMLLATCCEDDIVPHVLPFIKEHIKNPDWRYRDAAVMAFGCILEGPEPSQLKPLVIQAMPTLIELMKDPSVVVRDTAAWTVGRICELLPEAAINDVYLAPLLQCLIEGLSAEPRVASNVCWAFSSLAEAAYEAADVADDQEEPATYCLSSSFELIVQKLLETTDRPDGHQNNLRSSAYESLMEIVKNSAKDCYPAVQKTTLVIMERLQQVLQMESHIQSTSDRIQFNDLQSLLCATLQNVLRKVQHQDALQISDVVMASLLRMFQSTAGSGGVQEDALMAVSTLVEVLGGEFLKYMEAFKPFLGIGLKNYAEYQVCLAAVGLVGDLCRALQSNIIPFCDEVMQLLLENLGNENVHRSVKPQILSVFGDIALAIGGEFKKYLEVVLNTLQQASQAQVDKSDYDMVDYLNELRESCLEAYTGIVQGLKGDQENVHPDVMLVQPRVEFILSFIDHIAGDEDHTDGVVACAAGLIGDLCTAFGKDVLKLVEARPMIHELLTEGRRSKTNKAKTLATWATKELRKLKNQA

IC50	Ki	Binder
49 µM	11 µM	Ac-NPPVATFVFGQSSNPY-NH2 [NUP153 1220-1234 peptide with an extra C-terminal Y]
2200 µM	–	Ac-AYAPPVFVFQKDKGQK-NH2 [RANBP3 11-26 peptide]

biological target: MDM2 SWIB (E3 ubiquitin-protein ligase MDM2, SWIB domain) (human) (UniProt Q00987); experiment: as above
Sequence (Q00987 whole entry, the tested form may be a part): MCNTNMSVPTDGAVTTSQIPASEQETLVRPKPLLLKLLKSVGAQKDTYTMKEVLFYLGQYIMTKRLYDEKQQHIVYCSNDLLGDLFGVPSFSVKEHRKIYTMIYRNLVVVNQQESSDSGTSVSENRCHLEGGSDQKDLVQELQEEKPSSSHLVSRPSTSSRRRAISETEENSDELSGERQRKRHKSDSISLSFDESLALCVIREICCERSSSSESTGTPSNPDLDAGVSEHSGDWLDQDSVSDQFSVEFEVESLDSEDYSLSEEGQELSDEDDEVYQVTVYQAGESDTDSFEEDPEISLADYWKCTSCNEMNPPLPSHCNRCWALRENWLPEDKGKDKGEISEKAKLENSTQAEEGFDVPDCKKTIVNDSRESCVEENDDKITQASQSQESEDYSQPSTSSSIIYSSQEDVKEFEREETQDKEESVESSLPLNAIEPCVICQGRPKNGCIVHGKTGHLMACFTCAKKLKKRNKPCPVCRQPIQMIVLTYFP

IC50	Ki	Binder
9 µM	–	THFAELWGHLDHTMFF [RNF115 69-84 peptide]
73 µM	1.76 µM	TPEDDRSFQTVWATVF [KIAA1671 600-615 peptide]
130 µM	–	GFEAQWAALENKSKQR [NUMB 616-630 peptide with an added N-terminal G]

biological target: TLN1 PTB (talin-1, phosphotyrosine binding-like domain) (human) (UniProt Q9Y490); experiment: as above
Sequence (Q9Y490 whole entry, the tested form may be a part): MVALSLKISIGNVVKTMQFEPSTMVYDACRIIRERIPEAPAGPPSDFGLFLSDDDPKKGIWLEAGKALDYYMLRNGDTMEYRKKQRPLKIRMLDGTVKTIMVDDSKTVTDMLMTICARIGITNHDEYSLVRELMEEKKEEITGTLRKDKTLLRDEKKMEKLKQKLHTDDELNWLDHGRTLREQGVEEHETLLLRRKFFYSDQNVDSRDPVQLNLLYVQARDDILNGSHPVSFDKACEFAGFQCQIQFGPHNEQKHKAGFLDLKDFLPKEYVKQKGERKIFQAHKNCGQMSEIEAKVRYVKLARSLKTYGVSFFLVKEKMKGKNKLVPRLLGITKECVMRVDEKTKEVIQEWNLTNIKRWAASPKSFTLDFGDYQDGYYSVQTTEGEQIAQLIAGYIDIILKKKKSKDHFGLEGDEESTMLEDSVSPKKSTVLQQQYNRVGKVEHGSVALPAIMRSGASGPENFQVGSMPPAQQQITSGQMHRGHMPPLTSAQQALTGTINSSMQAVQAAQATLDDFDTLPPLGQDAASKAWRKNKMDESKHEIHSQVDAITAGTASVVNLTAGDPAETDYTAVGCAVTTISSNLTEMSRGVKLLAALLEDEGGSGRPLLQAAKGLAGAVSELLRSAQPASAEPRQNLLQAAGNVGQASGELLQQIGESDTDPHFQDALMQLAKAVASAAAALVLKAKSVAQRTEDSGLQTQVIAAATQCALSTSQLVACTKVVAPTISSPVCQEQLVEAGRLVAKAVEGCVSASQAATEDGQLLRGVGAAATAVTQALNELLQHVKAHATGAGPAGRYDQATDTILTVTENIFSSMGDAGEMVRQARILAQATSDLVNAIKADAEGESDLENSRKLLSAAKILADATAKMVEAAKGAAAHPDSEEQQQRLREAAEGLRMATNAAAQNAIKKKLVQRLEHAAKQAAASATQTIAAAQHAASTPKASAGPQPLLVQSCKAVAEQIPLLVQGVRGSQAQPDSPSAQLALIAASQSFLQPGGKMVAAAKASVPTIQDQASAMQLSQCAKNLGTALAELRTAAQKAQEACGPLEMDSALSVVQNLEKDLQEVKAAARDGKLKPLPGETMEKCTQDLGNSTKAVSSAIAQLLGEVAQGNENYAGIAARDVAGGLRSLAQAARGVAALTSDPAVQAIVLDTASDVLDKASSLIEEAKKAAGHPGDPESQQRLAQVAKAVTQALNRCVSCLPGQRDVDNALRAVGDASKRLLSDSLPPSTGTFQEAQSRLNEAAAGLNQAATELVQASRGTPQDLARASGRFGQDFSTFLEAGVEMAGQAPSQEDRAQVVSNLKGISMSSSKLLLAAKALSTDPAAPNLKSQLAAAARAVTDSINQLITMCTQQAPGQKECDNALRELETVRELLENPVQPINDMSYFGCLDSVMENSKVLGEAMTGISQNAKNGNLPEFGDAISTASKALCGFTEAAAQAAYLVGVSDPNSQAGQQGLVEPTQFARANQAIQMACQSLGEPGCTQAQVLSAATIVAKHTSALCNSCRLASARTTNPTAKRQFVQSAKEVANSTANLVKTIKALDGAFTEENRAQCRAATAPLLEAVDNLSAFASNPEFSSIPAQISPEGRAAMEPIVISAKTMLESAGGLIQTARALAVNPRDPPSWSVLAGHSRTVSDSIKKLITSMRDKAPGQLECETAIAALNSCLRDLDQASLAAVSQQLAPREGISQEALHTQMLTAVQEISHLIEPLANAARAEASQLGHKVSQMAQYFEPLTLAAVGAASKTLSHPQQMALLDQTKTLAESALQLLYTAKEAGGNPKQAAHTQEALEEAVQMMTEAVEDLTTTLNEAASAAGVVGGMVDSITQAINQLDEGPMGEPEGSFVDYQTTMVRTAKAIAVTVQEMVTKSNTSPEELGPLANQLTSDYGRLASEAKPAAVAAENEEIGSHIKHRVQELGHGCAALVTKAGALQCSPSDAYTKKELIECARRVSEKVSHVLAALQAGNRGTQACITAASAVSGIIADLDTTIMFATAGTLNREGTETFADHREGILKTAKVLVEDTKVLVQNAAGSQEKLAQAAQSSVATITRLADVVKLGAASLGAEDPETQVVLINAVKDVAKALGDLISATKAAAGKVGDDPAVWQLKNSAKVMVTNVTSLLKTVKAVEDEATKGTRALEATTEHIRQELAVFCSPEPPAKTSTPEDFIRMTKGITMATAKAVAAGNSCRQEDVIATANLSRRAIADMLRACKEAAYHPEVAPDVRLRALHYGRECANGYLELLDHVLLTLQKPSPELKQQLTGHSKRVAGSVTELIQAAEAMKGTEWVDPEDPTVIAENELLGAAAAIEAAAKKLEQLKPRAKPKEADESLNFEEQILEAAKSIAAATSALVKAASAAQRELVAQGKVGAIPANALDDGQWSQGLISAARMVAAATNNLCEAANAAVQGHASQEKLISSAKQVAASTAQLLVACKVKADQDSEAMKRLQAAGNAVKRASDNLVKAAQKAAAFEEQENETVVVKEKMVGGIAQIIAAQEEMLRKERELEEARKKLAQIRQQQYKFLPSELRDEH

IC50	Ki	Binder
62 µM	20 µM	VGPLTPLWTYPATAAG-NH2 [NYAP1 542-557 peptide]
15 µM	4.9 µM	DLIFTDSKLYIPLE-NH2 [TPTE 112-125 peptide]
0.42 µM	0.066 µM	FPTDERSWVYSPLHYS-NH2 [PIP5K1C 640-655 peptide, unlabelled]
1430 µM	480 µM	AKWDTANNPLYKEATS-NH2 [Integrin beta-3 763-778 peptide]

biological target: KPNA4 ARM (importin subunit alpha-3, armadillo repeat domain) (human) (UniProt O00629); experiment: fluorescence polarisation; competition: unlabelled peptide in serial dilution against KPNA4 ARM (master mix at four times the KD) with the probe FITC-Myc(320-328), probe of the major pocket; 50 mM KPO4 pH 7.5; Ki calculated from IC50
Sequence (O00629 whole entry, the tested form may be a part): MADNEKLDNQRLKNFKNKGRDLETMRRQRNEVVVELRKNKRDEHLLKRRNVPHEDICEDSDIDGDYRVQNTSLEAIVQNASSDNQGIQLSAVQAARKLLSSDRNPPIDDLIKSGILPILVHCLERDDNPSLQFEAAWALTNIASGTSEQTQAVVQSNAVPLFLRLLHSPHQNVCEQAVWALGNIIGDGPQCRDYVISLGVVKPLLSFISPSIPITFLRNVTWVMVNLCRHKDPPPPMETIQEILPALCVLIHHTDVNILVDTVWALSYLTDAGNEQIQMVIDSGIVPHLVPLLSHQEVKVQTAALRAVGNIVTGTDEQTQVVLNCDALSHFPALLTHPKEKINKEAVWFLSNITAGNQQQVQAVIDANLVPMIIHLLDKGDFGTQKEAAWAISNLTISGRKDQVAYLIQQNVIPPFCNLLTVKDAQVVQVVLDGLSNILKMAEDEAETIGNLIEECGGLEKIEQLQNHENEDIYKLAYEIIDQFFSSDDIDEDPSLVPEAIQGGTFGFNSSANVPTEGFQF

Binder	IC50	Ki
ERENPSKRSRIERDID-NH2 [CTDSPL2 64-79 peptide]	1.9 µM	1.2 µM
DLKRRLDSITSSQSSA-NH2 [KDR 958-973 peptide]	22 µM	14 µM
DHQFPAKRPRLSEPQG-NH2 [HJURP 675-690 peptide]	0.076 µM	0.038 µM
EDSIEPPHKRLCLSSE-NH2 [DMTF1 44-59 peptide]	0.13 µM	0.075 µM
IPEKKQRLEEATTICL-NH2 [AFF2 864-879 peptide]	2.3 µM	1.5 µM

Now from value to binder:

IC50	Ki	Binder
2.2 µM	6.8 µM	Ac-YKCKRQRQDQTLELVGL-NH2 [NKX2-5 192-207 peptide, wild type]
0.24 µM	0.14 µM	VEPETKRLKLAASEDH-NH2 [ZRANB3 571-586 peptide]
98 µM	63 µM	Ac-YKCRRQRQDQTLELVGL-NH2 [NKX2-5 192-207 peptide, K194R]

biological target: KPNA4 ARM (importin subunit alpha-3, armadillo repeat domain) (human) (UniProt O00629); experiment: fluorescence polarisation; competition: unlabelled peptide in serial dilution against KPNA4 ARM (master mix at four times the KD) with the probe FITC-NCOR2(1307-1322), probe of the minor pocket; 50 mM KPO4 pH 7.5; Ki calculated from IC50

Binder	IC50	Ki
Ac-EISLKRS[pY]ESVEGNIK-NH2 (SMILES CC[C@H](C)[C@H](NC(=O)[C@H](CC(N)=O)NC(=O)CNC(=O)[C@H](CCC(=O)O)NC(=O)[C@@H](NC(=O)[C@H](CO)NC(=O)[C@H](CCC(=O)O)NC(=O)[C@H](Cc1ccc(OP(=O)(O)O)cc1)NC(=O)[C@H](CO)NC(=O)[C@H](CCCNC(=N)N)NC(=O)[C@H](CCCCN)NC(=O)[C@H](CC(C)C)NC(=O)[C@H](CO)NC(=O)[C@@H](NC(=O)[C@H](CCC(=O)O)NC(C)=O)[C@@H](C)CC)C(C)C)C(=O)N[C@@H](CCCCN)C(N)=O) [NCOR1 1240-1255 peptide, pY1247]	21 µM	6.8 µM
ELKRKLEQEQKLVEVL-NH2 [MKL2 572-587 peptide]	36 µM	13 µM
Ac-EI[pS]LKRSYESVEGNIK-NH2 (SMILES CC[C@H](C)[C@H](NC(=O)[C@H](CC(N)=O)NC(=O)CNC(=O)[C@H](CCC(=O)O)NC(=O)[C@@H](NC(=O)[C@H](CO)NC(=O)[C@H](CCC(=O)O)NC(=O)[C@H](Cc1ccc(O)cc1)NC(=O)[C@H](CO)NC(=O)[C@H](CCCNC(=N)N)NC(=O)[C@H](CCCCN)NC(=O)[C@H](CC(C)C)NC(=O)[C@H](COP(=O)(O)O)NC(=O)[C@@H](NC(=O)[C@H](CCC(=O)O)NC(C)=O)[C@@H](C)CC)C(C)C)C(=O)N[C@@H](CCCCN)C(N)=O) [NCOR1 1240-1255 peptide, pS1242]	31 µM	10 µM
AGVKRSAAEMYGSVTE-NH2 [HNRNPC 95-110 peptide]	0.5 µM	0.093 µM
DLKRRLDSITSSQSSA-NH2 [KDR 958-973 peptide]	24 µM	8.9 µM
DHQFPAKRPRLSEPQG-NH2 [HJURP 675-690 peptide]	170 µM	63 µM
SLAPVKRTYEQMEFPL-NH2 [ADNP 711-726 peptide]	1.3 µM	0.38 µM
Ac-EISLKRSYESVEGNIK-NH2 [NCOR1 1240-1255 peptide, unphosphorylated]	11 µM	3.6 µM
PKRTYDMMEGRVGRAI-NH2 [NCOR2 1307-1322 peptide, unlabelled]	0.12 µM	–
Ac-EISLKR[pS]YESVEGNIK-NH2 (SMILES CC[C@H](C)[C@H](NC(=O)[C@H](CC(N)=O)NC(=O)CNC(=O)[C@H](CCC(=O)O)NC(=O)[C@@H](NC(=O)[C@H](CO)NC(=O)[C@H](CCC(=O)O)NC(=O)[C@H](Cc1ccc(O)cc1)NC(=O)[C@H](COP(=O)(O)O)NC(=O)[C@H](CCCNC(=N)N)NC(=O)[C@H](CCCCN)NC(=O)[C@H](CC(C)C)NC(=O)[C@H](CO)NC(=O)[C@@H](NC(=O)[C@H](CCC(=O)O)NC(C)=O)[C@@H](C)CC)C(C)C)C(=O)N[C@@H](CCCCN)C(N)=O) [NCOR1 1240-1255 peptide, pS1246]	240 µM	81 µM
IPEKKQRLEEATTICL-NH2 [AFF2 864-879 peptide]	3800 µM	1420 µM

Further lines, results first:

IC50	Ki	Binder
0.41 µM	0.047 µM	GKKRTFDETVSTYVPL-NH2 [TPX2 312-327 peptide]
3.6 µM	1.2 µM	PFKRPHSTISDSSTSS-NH2 [PLEKHG4B 1183-1198 peptide]
2.4 µM	0.77 µM	STMKRKHDEIQRSLPV-NH2 [ZBED9 651-666 peptide]
0.43 µM	0.054 µM	GVKRTYSEVYPGQQYL-NH2 [ZMIZ2 264-279 peptide]
